This series concerns the molecule itself. The series is described as follows: crystal structure; DcpS (8-350, H268N) in 1:1 complex with m7GpppGU RNA, 5 mg/mL, 10 mM Hepes pH 7.5, 100 mM NaCl, 1.6 M NH4SO4; space group P212121, two dimers per asymmetric unit; 2.9 A.

The results in this text go back to article PMC7431086, “Molecular basis of the selective processing of short mRNA substrates by the DcpS mRNA decapping enzyme” (Proceedings of the National Academy of Sciences of the …, 2020).

B1: DcpS from S. cerevisiae (residues 8-350; H268N) (enzyme, UniProt Q06151 8-350, looked up)
chain: FASLIKRFQFVSVLDSNPQTKVMSLLGTIDNKDAIITAEKTHFLFDETVRRPSQDGRSTPVLYNCENEYSCINGIQELKEITSNDIYYWGLSVIKQDMESNPTAKLNLIWPATPIHIKKYEQQNFHLVRETPEMYKRIVQPYIEEMCNNGRLKWVNNILYEGAESERVVYKDFSEENKDDGFLILPDMKWDGMNLDSLYLVAIVYRTDIKTIRDLRYSDRQWLINLNNKIRSIVPGCYNYAVHPDELRILVHYQPSYYHFNIHIVNIKHPGLGNSIAAGKAILLEDIIEMLNYLGPEGYMNKTITYAIGENHDLWKRGLEEELTKQLERDGIPKIPKIVNGFK
notes: Crystallised as a 1:1 complex with the capped dinucleotide m7GpppGU; also called Dcs1p; Scavenger Decapping Enzyme
In the case of B1, the binding result was “binds”.
